The DeepSol protein solubility set

Experiment: soluble on expression in E. coli; label from the status in PepcDB or PDB records

| Sequence | soluble on expression in E. coli |
| --- | --- |
| MGRIYLKKAKSEEDLLKRGRPFTVEVDELKIPFCVSPVTNTFDNKKKVFLTFLGPVKQFHEAIHLCITSLYRPTPYNKYELTTNVDDLTCTPDIKNMKESYLATIKSESLNASTIDNFLSKKTSIEKLTLGMKVLDNFQEDSAIFRMKYFWFTYSLEHAPIVLSKFQGTHLWMTDANIKNEDIISFLNTWQNSECDRKIFEIKVSEGMNPLNPDIVYEDIDVSDWDPAERPKEFNFVSTFFPENFNKVYDCSTWMDIKRSGDGKIASICITSNAFKFLVWD | not soluble |
| MGRKIVFFDIDGTLLDEQKQLPLSTIEAVRRLKQSGVYVAIATGRAPFMFEHVRKQLGIDSFVSFNGQYVVFEGNVLYKQPLRREKVRALTEEAHKNGHPLVFMDAEKMRASIGDHPHIHVSMASLKFAHPPVDPLYYENKDIYQALLFCRAEEEEPYVRNYPEFRFVRWHDVSTDVLPAGGSKAEGIRMMIEKLGIDKKDVYAFGDGLNDIEMLSFVGTGVAMGNAHEEVKRVADFVTKPVDKEGIWYGLKQLQLIR | soluble |
| MGRLADTLDALSVRALSPDHRIQGQLHHRTKVDISFTSEDSYYEYKSEQAVAAQLSAVLNALIVGRNEGFCAAVREVTDLRLDDRPHWDARRRRFREERDGAPLEGQSAGGWLTVASVGLRDANATVKPGAFDELDASGFLIEVHSAIADLWKDQAMAMSYLRRTHFG | not soluble |
| MGRNRIKKVTERLPLPPNARRVEDPEMNMSREVVEDPGVPGTQDVTFAVAEVNGVETGRLPVANVVVTPAHEAVVRVGTKPGTEVPPVIDGSIWDAIAGCEAGGNWAINTGNGYYGGVQFDQGTWEANGGLRYAPRADLATREEQIAVAEVTRLRQGWGAWPVCAARAGAR | soluble |
| MGRRVLLSFLGLGDYEYCYYTYEGKTSTYTRFIQTAVYELFRNDEPMDVVVFATKEAQDRNGQDRKKGDKLLEGIGTAFSRIAPEANVKIVEIESGQDEQANWRLFDRIMDEIKEGDTIYFDITHSFRSIPFVALIVLNYARLVKKADIGAIIYGWFEVLGRPIDVEQMPEEQRVAPIVNLTSMAKLLDWTNGVDQFLRTGDASIIQALTAKENSEVFRNPSLSQAVKDEVKELRELTKRLDQTEKAIRTCRSLQIDEEVQKFHEQLGRVRSASAEAIKPLVPLLDVMEKKYAMFDDDPIMNSWKAVRWCLDHGLIQQALTMLEENAVTAVCRVLGLDLRNEKARGDVHSAIEILLRDIPKEEWRVRSVERVEQIIDFLSPYKGDLKRFSTLKERRNDINHAGARPQPLKAEKFWPDAEQSFRELGAFFERMSALAKSMQTVKGNG | not soluble |
| MGRVIFMGKTGCGKTTLCQALNNLEIKYKKTQAIELYDNAIDTPGEYMENRGYYTALIVTAADADIIALVYDCTSEENYIAPGFASMFCKEVIGIITKINLAKDKSEIEVAEERLNLAGVSKIFKVDTVDDVGIKELFNYLNKFLEHHHHHH | soluble |
| MGRYSVKRYKTKRRTRDLDLIYNDLSTKESVQKLLNQPLDETKPGLGQHYCIHCAKYMETAIALKTHLKGKVHKRRVKELRGVPYTQEVSDAAAGYNLNKFLNRVQEITQSVGPEKESNEALLKEHLDSTLANVKTTEPTLPWAAADAEANTAAVTEAESTASAST | soluble |
| MGSAVIRVLSYNIRSMRDDTAALARVISACEPDLVLVQEAPRFFRWRKKLAPLASACGQVVLSGGATAAGPALLCSLRATVERTEDVLLPLTPGLHRRGFATAVVRFGRARLGVLSCHLSLQKNERYEQGGMLLDHLARLGTPHAIAGGDLNERPDGRTFKRLASELRDCWATAPWGAEYTSTPADPHQRIDAILATPGIEVLACGVPLGHPGVTEADLRAATDHLPVLAALRVPASLEHHHHHH | not soluble |
| MGSDKIHHHHHHACILFVCFLYTNNEIGVTSSKLEADIRSSQKIKDDWTVDGSVSSTMAAYISYPQDLSDHSFSVYVNRPGLSFGYFFRGGGTLSGIQRGIVEFTVEGYNERAFISMNQQQVQQLEIDDGNTIQVVDIDRNKPFAIVLPINAGNITFYDVNRNTVEYWNNPL | not soluble |
| MGSDKIHHHHHHACSQKQPIQATVTPSDPVVGEEIFFSDSTSGARIWYWEFGNNETSTQRSGYHRFKQKGVYKIRLTVNGNLERYFDVRVKEKTNAEDLHLVHIIAPKEAIQGENIIFRGEGHDEQWRWEFGETGMIDSREKTALYAYTEPGEYEVLLNTENTRYPIRHRINILPYYSENDSTDVMVLIGLDIKEKLQNIADGKPFNVNYNYVVDKYFNNNPNTLVIVNNNKYNDFYSYCQGLHHIGRKETIIQNVIVETEDEESGYITQITVMQIEKKK | not soluble |
| MGSDKIHHHHHHACSSDDDNTVNDETTPPEEEAVVTAPDVVGTYWGNLDISMLPDGSDQEVVIADGLPKFITFSQVSDTEVKMELKEFELFINGNILKFGDIVIDKCAVKKETDASTFTGQQDLTFQGDAAALGTCATSIEGTVQSGNATMNIQVKVPALKQTVKVAFSGVKQVEESGKD | not soluble |
| MGSDKIHHHHHHAGELNLYSMNTGSYVYHMTGNHGQYNEHFNNNFFSVERKFSQDSKYSVLVGTMKNSFDDRCLTLGVRRDWLKNDTGWVLKGVYAYTGEFFFDAFSHCGDSGTYRTAKKITGIGFSPYLYHGLQYNFTDYFGVEGGIIVPAIFVMSVQWSFR | not soluble |
| MGSDKIHHHHHHAQRIEELPAVPLQIGYEKTLHLIFPTEVKYYSIGGDYVIGEKVGNCPEIIRLKAAEENFPGETTLSVVTADTKFYSYAISYNAHPVESYVRVDGQAPAPHTLPVGKDRQMFLIFPAGITYVDYGSTNVEVEKAEGVDNILAVKATGEFTEDTNISAVVEGGKFYTFNLHYAPFPERFSFVIDKEKTQRVAILDERERSSEQKERIRQAISKRIPLDLGLKDKNAGMEFEVGNIFIDGDILLLRMTLTNRTQIGYTTDFMRFYIQDAKIHKKTAVQQIEQNILFAFDYPEEIPAHESRTFTVAMNKFTIPDKKRLIIEIQERNGGRHFLYKLKNKSLLGAEEVFRSLQEQKTEDEADRILRRISR | not soluble |
| MGSDKIHHHHHHAQVNDTIQRTTGNDLYQGITRKLPYWQMVTPHGVQVTFAKTVHIIFPSAVRYVDLGSNWIIAGKADGAENVIRVKAATEGFPGETNFSVICEDGSFYSFNARYAHEPEMLNIEMKDFLENGDTTDFSHTRMNIHFRELAGESPLLVKLIMQSIYKEDRREIRHLGCKRFGVQFLLKSVHSHNGLFYFHTETRNRSNVAFRTDFIRFKIVDKKVPKRTAIQERVIDPVRSYNEVLVTEGKSDVRTVYAVPQFTIPDDKLLVIELFEKDGGRHQTIRVENADLVAARQINELKIK | not soluble |
| MGSDKIHHHHHHASCSGGDKSKAPVVSTADIENAAEVIKYYNTSLGVLKDMVKEKDVNAVLDYMEQKGKTPALSAIVPPAVVSKDSAIVLNPGNCFNEETRRNLKQNYTGLFQARTEFYANFDTYLSYLKKKDVTNAKKLLDVNYQLSTQMSEYKQNIFDILSPFTEQAELVLLVDNPLKAQIMSVRKMSSTMQSILNLYARKHRMDGPRIDLKVAELTKQLDAAKKLPVVNGHEGEMKSYQAFLSQVETFIKQVKKVREKGEYSDADYDMLTSAFETSII | not soluble |
| MGSDKIHHHHHHATEADVEAAFNPYKNGFPSFPGLAAGTVVNKGNVEQFKDALDPGLYQIVKNGWDEIKVGPTTQFAMDKFYVEATKKNLNTAKLGAQNGEITGFVAGRPFPEEPKADDPRAGEKLAWNFKYGLNWGDNAAIYPFYWKYRNMTSGQVERTLKFNFHFLNFKHRVQHAPVPEVTPNPSELFRGIYVKVLEPQDLKNTQLLIQRYEDDLKFDDAYLYLGFQRRVRRLATGQTTDAFLGADLMIEDFEGYNGRISDMKWTFKGTKNILMPYYNHNELQLTDEFKDPSGYKFVDFGGQGGCFPKITWQLRKVYVLEAAPVLASHPVSKRVFHVDAQVFNINRTLIYDRKGELWKTFTIGKSHPDHHLPVNKGTGIAIDDSFSMIDVQAKHCTTGQFKGQVDPKLNPPSLFQVQNMRGGD | not soluble |
| MGSDKIHHHHHHAYFFNVAFVPGQKSVLNKYSSKKKKDPFAQNKKWYADAKKEQWYIKSASSNYCLDANYIPKKNSHKTAVLLHGFMNNKDTMAPYAAMFHQLGYNVLIPDARAHGKSQGKYIGYGWPEKYDVQKWVKKDIAEKGKKQKIVIFGVSMGGATTMMTSGLKMPKQVKAYIEDCGYTDVKSEFLYEAKDIYKMPKLVASSAVAILSGVSKANLGFYLGDASAVNQLKKNKLPMMFIHGSKDNFVPTKMVYQNYKATNGPKELWIAEKAAHARSFETYPREYKARVSKFLNKYV | not soluble |
| MGSDKIHHHHHHCASSLTQGKYVDGTHLVQAKGKKSQIVLEVKVDQGKIVDIKTKSHKETESLYLNAERLLPRIVANNGHEGIDAVSGATYSSNGILKAVNDLPRASSVQPEYVAVGAKEEQGDDFKLKWSIQPKLGLLVGDYYYEEARFRQGHMGSMTIVTNSQDRNDVILAEFNESGRPNYYTRLYQDVPKRMSEYNFSMGKKKGTAWVQSALTMEKLMVEQDKLTFEPNPNHDPKLANKLKEPNRLKYLGIDVVAGASNSIQQSMIPLTAKIHHKIHGEGTRLKFYQLAEKLVNEKGRWTGITAMLRLVVDPASKQIIKAHFDEIFADEKAQIQDASLKKFYRQSKYDSINYSEPARIGFNVMIDALNAHLQAGGSLFDINDLPATGDSGNYAATGFTKRSSSWDIYLNQAEQLYKKMRLDGVIAEHKHPAAK | not soluble |
| MGSDKIHHHHHHDDNSYSLGDIWIAVATVVPEGNNVYYLRLDDGDKLWPAATNYPNYQPKPNQRALVNFTILADSTQSNLGGFSHYIKVNAIHNILTKSIAKNEGAANDSIYGTDPVSIYNNNMWIGDGYLNIYFETLWGGKTAHFINLIQPDAENDPYTLEFRHNAYDDPQYTIGAGRVAFNLSSLPDTKGETVDLVVNYWTSEGKQAYKLKYNSDKTKMEDTSQGYTNDSISNITDMK | not soluble |
| MGSDKIHHHHHHEISDGVVRIGLLTDMSGAFSQFSGHGSVVAAQMAIDDCLAAECKGMKIELLSADHQNKTDIALAKAREWADVNKVDAYADMVNSAVALAMQSLAVQKKKAALFAGGPLRISNEDCQPEYAVQWMWDTYSQTAAAIKGLAKPKQGWYFITVDYAYGNAAVAEARKQLEAIGAHTVGESKHPLNSNDMSSQIIAAQQSKADVVAFANSGADSANAIKTASEFKLGAKKLQAAFFPTIYEIKGIGLAQAKGLRFPESFYWDIDDGTRRFSKRFMDIYKKGPPSLTHAGVYSSVYHYLKAVAATKSDDAQTVIRKMHELPIRDDVVRNPKLRPDGRMVHDYYYFRVKSPQESKGPWDLYALEKTLPGDEVFLPVAESQCRVFKGQAK | not soluble |
| MGSDKIHHHHHHENLYFQGMWKSISQVLAEQFGAYYFIKHKEKLYSGEMNEIWLINDEVQTVFVKINERSYRSMFRAEADQLALLAKTNSINVPLVYGIGNSQGHSFLLLEALNKSKNKQSSFTIFAEKIAQLHQIQGPDKYGLDFDTWLGPIYQPNDWQTSWAKFFSENRIGWQLQICKEKGLIFGNIDLIVQIVADTLSKHNPKPSILHGNLWIENCIQVDDKIFVCNPACYWGDRECDIAFSSLFEPFPTNFYQRYNEIYPLEEGYLERKLIYQLYYLLNFSYRYYNKKQSYVSLTQKLINQILHKIDK | soluble |
| MGSDKIHHHHHHEQEDKVSGEKTLAVVSASSDDRPSTRGIINDNTYALGVFRTTANTYAPLYNVKHIYSGGEWGADDVIKVDYRNASFFAYYPYHTATGNYAGLAGGTTLTLQAQLFNAGEDICYGAGEASGGGPVSVYNPFVEFLNMKHAYARLRLTLTRGEKFDKTKKCNIQNITFKSNNANFYLTRSLDIASTAGATGGSAVAAGYVHNPNVNIATGKSVTYEYMFPPQPLDGSKLTILVTVDGVTRSCDISTLGSSLDSGKYYGVSLTFTDVGIILSSAVVTVNNFGGQGNTQVDTEL | not soluble |
